The results in this text go back to the domain aggregation screens of Martell et al. (2025).

The data set is described as follows: soluble fraction after stress (log2 fold change); higher = more stays soluble; pooled small domains, quantitative proteomics. To be noted: stress: 50 degC. In short, it runs like this: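 Each library was heated to 50°C as a stress step. The libraries, made up of small protein domains, were pooled and analysed at high throughput by quantitative proteomics. The reported value is the base-two logarithm of the fold change in each protein's soluble amount after stress, taken as a measure of aggregation propensity. The higher the value, the more protein stays in solution.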
Turning to “HMKDESYALGTRLLSHALGKTKLEDLAQEKIDEVVQQSGNKTLEQLLTNIGLGNALSIGIARQLT”, the “soluble fraction (log2)” value is 0.383.

In the case of “HMKDGAKYFQLFGLLKNEINRGIYQSGQKIPGENELAEKYGMSRQTVRQALSLLEQESLIERRQGSGTYVR”, the “soluble fraction (log2)” value worked out at 0.108.

For “HMKDGMRVYITYHDSEEEPEKPIGDGTTKGWHTNSTASVVWISQKVAESADLGIWGDPIRIKGEA”, the “soluble fraction (log2)” value was -0.14.

Regarding “HMKDIIVDPQGQYNHPGVPTRIPSSDITMKGVGYPVLGIADNGQKQMMQPGQDYKFPGAKYVDEYPQM”, the “soluble fraction (log2)” value turned out to be 0.137.

As to “HMKDIIVLGAIQAGIKKFDKIQKMTQIEPEELNSILEQLENRGFIQVAEKSGLLGKKIEILVTEKGSNEVD”, the “soluble fraction (log2)” value is 0.442.

For the sequence “HMKDITAVISKKKGRDYYYIIVSYHLSNGKRVQKWIKTEFSVNGNNKRKLEQKRIEILQEWQNKLV”, the “soluble fraction (log2)” value was -0.642.

As for “HMKDITMPNVYGLTLEMAEQTLKQSELSIFKAMKINSDTVEEGKVIYTDPKANSIVSGDQEITIYVSDGP”, the “soluble fraction (log2)” value came out at 0.0645.

Consider “HMKDKSEKTKKLIFEAAFKIIREEGFSELSANKIAQVASVSKGVIFHHFSQMDDLYLFMLDTL”, for which the “soluble fraction (log2)” value amounted to 0.255.

Regarding “HMKDLTAIKGVGEFFAKKLSQAGYQSITNLTDVNAKRLQADTGIPLPIAARIIKEAQSLIAET”, the “soluble fraction (log2)” value is 0.206.

As to “HMKDMWNRIRRARLSAGLSQAALAKETGVRRSAVTQWEKEGGTSPSVANLARIAVVTQVHFEWLATGRGPG”, the “soluble fraction (log2)” value was -2.67.

Take “HMKDNIRSILEDIPNIGPGRRRALLKHFGSIEAIRRASLEDLIKVDGMNRNAALSIMEYFGM”: the “soluble fraction (log2)” value is -0.159.

As to “HMKDPSLEHIDALAGKPFQAFPGQDHRAHITAHLNFMSTNMVRNNPSIMAAIQKNILEHISLMAQEQIQL”, the “soluble fraction (log2)” value was -0.783.

“HMKEETYHYTVRYVTDGGDILASYEGKATKDSVFFPEVKTFDGYTAVRGEEPMFHLVSDHAVFQIVYQKNG”: the “soluble fraction (log2)” value is -0.147.

As to “HMKEFEINSQWKPSLEVYDILSVKGGISRNFIEDSIPEFVLYWRGRGDKSNTWDSKFVQHVKRQWNFYSGL”, the “soluble fraction (log2)” value is -3.32.

Turning to “HMKEGGREEMSEIVERYGDERALMANITSVQNLMNNMKWTLDQALDALGIKGKERTLITQQLQ”, the “soluble fraction (log2)” value was -0.147.

Regarding “HMKEIATKSELTYFIQRLLDLLEETNFFNPEERKKAMINHIEAIFRRNNLTLQELNMLHGIITSITR”, the “soluble fraction (log2)” value was -2.62.

For “HMKEIGGGPASKFIYYLIKTKHPIEQGDLIGITHLPRRTVQSAIEDLKNQGFIIERNSLDDSRRKVYYPVK”, the “soluble fraction (log2)” value was found to be 0.000762.

Turning to “HMKEIKRLVELSPGRYFIEGATNIRVFGINGSLLLDTKGETVDLSDLAKGVYLLKTDGVTYKVL”, the “soluble fraction (log2)” value was -0.543.

“HMKEIYIDRGKEALEKELRKRKIPFQEFLSKENTNLLFDTLKIPSHDLEELYLEIGNGKHAASTVVNTVY”: the “soluble fraction (log2)” value was 0.136.

In the case of “HMKEKQLMTLDDDLYAFLLKHPGIIQKDIYNHFPYDIKGVIADTLYAWDKTGKIKRTKSGNSYIIYT”, the “soluble fraction (log2)” value is -0.0536.

On to “HMKELAADFSRRIINARTSKGWSQADLGQRMAETINVIKSAESGKPPTDAVVKKFETVLGVILM”, for which the “soluble fraction (log2)” value is -0.641.

Turning to “HMKELLDRIFLHETMRRVSQDATITFSKKVYEVPQKFIGRQVTVQYDPEDLSRVYVKDLNFPEPVMVYPVQ”, the “soluble fraction (log2)” value is -0.843.

With “HMKELTPEQLQHNWNNLRQFIDVNFSGDRLGGLNKMYDYFEERMMFAPASGKQHYHNAFAGGYVEHVMHV”, the “soluble fraction (log2)” value is 0.335.

On to “HMKEPGFAPPVRALAAAPITVLAQVAGTNPGEIRARLRAAGYPVASDQQSVQSLVGGDLKAQIGVLNRILA”, for which the “soluble fraction (log2)” value was -0.00802.

For the sequence “HMKEQIKVPDLSNKTPEEAKKELNTLGLGARKGGEESSDTVEEGLITRQEPAAGEQVDKNTQILFYVSTGK”, the “soluble fraction (log2)” value is 0.0624.

As for “HMKEQLLLGFKVRSLRGIDLGFVKFIEGSAFQSFLKTDLTIIPNVPNYVKKIDNVKKIILVDWESD”, the “soluble fraction (log2)” value is -2.69.

Take “HMKEQYTELDWDKVQVNDKVMIKDLNQQVTILSLPDKNNALYIQMGMIKTKVKKEKLAVYNPQLA”: the “soluble fraction (log2)” value was -0.185.

In the case of “HMKERVSWDERLERFAKHITENESLPYPSSKEYAWFEENKALYDAGELEPVRAQSFAFLLKIMRRMNL”, the “soluble fraction (log2)” value is -0.491.

Turning to “HMKETIIPELLQNELDKNSELNDKFNTFSPYKQREFIEYIITAKQEKTQISRLQKVILMILEGRGLNN”, the “soluble fraction (log2)” value was -0.204.

For the sequence “HMKEVELENMIKAKGFKDAAVLVDERSVTVIVESERLAAGDSASIKELVSRGTGVDPQNVVII”, the “soluble fraction (log2)” value is -0.107.

Regarding “HMKEYPEVITTSRLNVRTGPGTGYQRLGTLDQNLRVLVLTRQQGWAQIRGMLNGETVIGWVNDYYLQAID”, the “soluble fraction (log2)” value is -0.319.

With “HMKFINISIDKSGNLFINKKSIKFQDLKYNVVNLVDESKNLVVLNADENISHGYVISVLDVLRSIDGLKLA”, the “soluble fraction (log2)” value is -2.18.

“HMKFNEKQNEVRIAIMNFIIDNKRPFHMKQDGYDALEGITLSGRHEFQDILDVLHSRDGFSADEEGNINF”: the “soluble fraction (log2)” value was -1.51.

As for “HMKFPIITAKQDSDGKFYWAQTTDKGKTYTFILDGDGKKFPIGGTMPDVKINENGYWSVNGSSTGVLANDL”, the “soluble fraction (log2)” value amounted to 0.0311.

As for “HMKFSVEEQFKKSFPKNTYETFSETSLKGVYEVYNGKQVYYYLPVNDVLLLGSIVTKDGKNLTQESNSKK”, the “soluble fraction (log2)” value is -0.0811.

For “HMKGIVFTEFLDLVEERFGLEMVDAIISQSKLESKGVYTSIGTYSFSELLQLLQNLKIQTGISIDNLLLI”, the “soluble fraction (log2)” value was -0.88.

On to “HMKGKIYFFEEGVDRVGGVERVISTLANEFSKKYKVNVISFYKTRKETFFKYNSDIDITYLSK”, for which the “soluble fraction (log2)” value came out at 0.14.

For the sequence “HMKGLDRATNKALLLKHIIDNGSTGTRFSELRQVLPSLTRGSISSLLIELRSEGKIHSIGVTRNARWYPTE”, the “soluble fraction (log2)” value is -1.07.

For the sequence “HMKGLKERLLYFIEYKGLPVQMFEKIVGLSNAAVSKMGDNTRRSTIDKISKSFPELDVNWLLTGQGEMLSY”, the “soluble fraction (log2)” value is -0.255.

Turning to “HMKGPAFAKIDLTQLPAGLTSFLNTNAAGFKLDYAVAITKDSVIIEYHVGVTIGTAKKEFHLDPNFQLLP”, the “soluble fraction (log2)” value was -0.36.

For “HMKGPLKDLGPDPVTGKSILVKDGKFGTYVTDGETNATLRRGDIVELLTLERGMELLAEKRARATQ”, the “soluble fraction (log2)” value came to 0.151.

Take “HMKGTVKFFNESKGFGFITEEGTNKEHFVHVSGLVDEIRENDEVEFDLQDGRKGLNAVNVRV”: the “soluble fraction (log2)” value amounted to 0.231.

On to “HMKGVENLSDIDIQKALNNARANLSKNKAKLEQAGDDEKKKASALAMIQKWETTKKAIEEEIEARKKKSLN”, for which the “soluble fraction (log2)” value was -0.296.

For “HMKHAIKEKIRNEYVHGYLNEEGYRVMPTLDELIRKYEVPASSTYRASSKEGWKKQKEAFLEHLRGEIDA”, the “soluble fraction (log2)” value is -0.139.

As for “HMKHFFIIAGGKIEDAFAIEVLKGFAEKTVIAADSGMEFLRRNEIVPQVIIGDFDSVSKETLEWFQKK”, the “soluble fraction (log2)” value was -0.703.

Turning to “HMKHKGILTTWNDDRGFGFITPKEGKEPVFVHISAFARGQGRPVLNASLTYRLVRDDQQRPRAEAVRL”, the “soluble fraction (log2)” value is -1.15.

For “HMKHKHHIIPKHKGGTDHPDNLIELTVEQHAKAHWVEFMLDGREEDYWAWKGLEGVASKKDIIYALSKR”, the “soluble fraction (log2)” value is 0.351.

With “HMKHSEAIELGKRMLSQALQDVSLVLKKIPEERLQAVAAELNLKTPDELFEKIGLGERLAALVARRLLP”, the “soluble fraction (log2)” value was -0.207.

On to “HMKHTQTDEGELLSTLRTLFPNSSSSSLRKMLTQGRILVNQEVVHRAKHALQAGDEIEVLARQ”, for which the “soluble fraction (log2)” value is -0.122.

As for “HMKHVDLDNNERYIYGIIGSTKIHVDEVVEKSGMETKHVMAILTNLELKEAIKGIPGGFYLR”, the “soluble fraction (log2)” value is -0.506.
